Target: integrin molecules on human cells
Experiment: cell-based or functional assay

B1: RGD-Hoc (SEQ ID NO: 19), P18056 1-376 (protein)
chain: CDCRGDCFCSAMTFTVDITPKTPTGVIDETKQFTATPSGQTGGGTITYAWSVDNVPQDGAEATFSYVLKGPAGQKTIKVVATNTLSEGGPETAEATTTITVKNKTQTTTLAVTPASPAAGVIGTPVQFTAALASQPDGASATYQWYVDDSQVGGETNSTFSYTPTTSGVKRIKCVAQVTATDYDALSVTSNEVSLTVNKKTMNPQVTLTPPSINVQQDASATFTANVTGAPEEAQITYSWKKDSSPVEGSTNVYTVDTSSVGSQTIEVTATVTAADYNPVTVTKTGNVTVTAKVAPEPEGELPYVHPLPHRSSAYIWCGWWVMDEIQKMTEEGKDWKTDDPDSKYYLHRYTLQKMMKDYPEVDVQESRNGYIIHKTALETGIIYTYPKLAAALEHHHHHH
Which luciferase activity does the source give for B1 here?
The luciferase activity was 5 fold.

Reference: patent EP4371564A2
